Experimental findings from article PMC12221368, “Long AKAP18 isoforms anchor ubiquitin specific proteinases and coordinate calcium reuptake at the sarcoplasmic reticulum” (The Journal of Biological Chemistry, 2025) are described below.

One assay deals with GFP-AKAP18γ (UniProt Q9P0M2).
The target in the next assay is GFP-AKAP18δ (UniProt Q6JP77 1-353). Nature of the assay: cell-based or functional assay.
Chain of GFP-AKAP18δ (Q6JP77 whole entry, stated change not applied): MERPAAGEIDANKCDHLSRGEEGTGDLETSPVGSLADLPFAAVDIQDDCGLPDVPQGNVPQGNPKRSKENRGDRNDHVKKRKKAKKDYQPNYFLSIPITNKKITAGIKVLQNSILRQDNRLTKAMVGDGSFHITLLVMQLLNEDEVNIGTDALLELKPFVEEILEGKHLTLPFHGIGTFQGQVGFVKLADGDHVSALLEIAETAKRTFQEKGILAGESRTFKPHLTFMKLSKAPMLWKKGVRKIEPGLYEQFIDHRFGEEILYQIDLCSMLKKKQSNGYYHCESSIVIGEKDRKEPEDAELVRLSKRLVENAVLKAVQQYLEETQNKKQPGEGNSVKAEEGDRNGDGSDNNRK

Chain of GFP-AKAP18γ (Q9P0M2 whole entry): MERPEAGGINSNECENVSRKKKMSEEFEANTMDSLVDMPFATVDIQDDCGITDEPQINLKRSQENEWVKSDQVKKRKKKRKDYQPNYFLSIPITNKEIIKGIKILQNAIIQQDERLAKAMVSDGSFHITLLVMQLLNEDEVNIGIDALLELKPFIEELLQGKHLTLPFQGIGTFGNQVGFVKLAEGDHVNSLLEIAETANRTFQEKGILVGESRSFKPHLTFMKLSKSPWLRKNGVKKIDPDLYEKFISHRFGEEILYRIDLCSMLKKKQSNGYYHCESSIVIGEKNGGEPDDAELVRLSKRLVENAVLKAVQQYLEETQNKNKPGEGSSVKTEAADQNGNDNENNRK

B1: V5-tagged USP4 (enzyme, UniProt Q13107 1-963, looked up)
chain: MAEGGGCRERPDAETQKSELGPLMRTTLQRGAQWYLIDSRWFKQWKKYVGFDSWDMYNVGEHNLFPGPIDNSGLFSDPESQTLKEHLIDELDYVLVPTEAWNKLLNWYGCVEGQQPIVRKVVEHGLFVKHCKVEVYLLELKLCENSDPTNVLSCHFSKADTIATIEKEMRKLFNIPAERETRLWNKYMSNTYEQLSKLDNTVQDAGLYQGQVLVIEPQNEDGTWPRQTLQSKSSTAPSRNFTTSPKSSASPYSSVSASLIANGDSTSTCGMHSSGVSRGGSGFSASYNCQEPPSSHIQPGLCGLGNLGNTCFMNSALQCLSNTAPLTDYFLKDEYEAEINRDNPLGMKGEIAEAYAELIKQMWSGRDAHVAPRMFKTQVGRFAPQFSGYQQQDSQELLAFLLDGLHEDLNRVKKKPYLELKDANGRPDAVVAKEAWENHRLRNDSVIVDTFHGLFKSTLVCPECAKVSVTFDPFCYLTLPLPLKKDRVMEVFLVPADPHCRPTQYRVTVPLMGAVSDLCEALSRLSGIAAENMVVADVYNHRFHKIFQMDEGLNHIMPRDDIFVYEVCSTSVDGSECVTLPVYFRERKSRPSSTSSASALYGQPLLLSVPKHKLTLESLYQAVCDRISRYVKQPLPDEFGSSPLEPGACNGSRNSCEGEDEEEMEHQEEGKEQLSETEGSGEDEPGNDPSETTQKKIKGQPCPKRLFTFSLVNSYGTADINSLAADGKLLKLNSRSTLAMDWDSETRRLYYDEQESEAYEKHVSMLQPQKKKKTTVALRDCIELFTTMETLGEHDPWYCPNCKKHQQATKKFDLWSLPKILVVHLKRFSYNRYWRDKLDTVVEFPIRGLNMSEFVCNLSARPYVYDLIAVSNHYGAMGVGHYTAYAKNKLNGKWYYFDDSNVSLASEDQIVTKAAYVLFYQRRDDEFYKTPSLSSSGSSDGGTRPSSSQQGFGDDEACSMDTN
B1: the values for the deubiquitinase activity (Ub-AMC fluorescent assay) in GFP immune complexes, fold over IgG controls, n = 3 with GFP-AKAP18γ and with GFP-AKAP18δ were 7.5 fold and 9.2 fold, respectively.
